In article PMC11233575, “Unlocking the function promiscuity of old yellow enzyme to catalyze asymmetric Morita-Baylis-Hillman reaction” (Nature Communications, 2024):

What was measured:
[1] = substrate: O=C1C=CCC1; assay: initial velocity of MBH adduct formation by HPLC, Michaelis-Menten fit; format: biochemical, Geobacillus kaustophilus; conditions: 4 mM 4-nitrobenzaldehyde, PBS pH 10.0, 3% methanol, 25 °C
Text: (§1) initial velocity of MBH adduct formation by HPLC, Michaelis-Menten fit on GkOYE

[2] = substrate: O=Cc1ccc([N+](=O)[O-])cc1; assay: as above; format: biochemical, Geobacillus kaustophilus; conditions: 5 mM 2-cyclopenten-1-one, PBS pH 10.0, 3% methanol, 25 °C
Text: as §1

[3] = target: the molecule itself; assay: crystal structure; apo-GkOYE.8 at 15 mg/mL, hanging drop, 0.1 M glycine pH 9.0, 25% (w/v) polyethylene glycol 2000, 15% (w/v) glycerol, 20 °C; 3.11 Å
[4] = GkOYE.8, MBH reaction, no FMN, covalent intermediate at C26

B1: GkOYE.8 (GkOYE^Q102A/Y169F/R215A/R308A) (enzyme, Geobacillus kaustophilus)
chain: MNTMLFSPYTIRGLTLKNRIVMSPMCMYSCDTKDGAVRTWHKIHYPARAVGQVGLIIVEATGVTPQGRISERDLGIWSDDHIAGLRELVGLVKEHGAAIGIALAHAGRKSQVPGEIIAPSAVPFDDSSPTPKEMTKADIEETVQAFQNGARRAKEAGFDVIEIHAAHGFLINEFLSPLSNRRQDEYGGSPENRYRFLGEVIDAVREVWDGPLFVAISASDYHPDGLTAKDYVPYAKRMKEQGVDLVDVSSGAIVPARMNVYPGYQVPFAELIRREADIPTGAVGLITSGWQAEEILQNGRADLVFLGAELLRNPYWPYAAARELGAKISAPVQYERGWRF
notes: FMN-free (apo); Expressed from the plasmid pET28a-GkOYE.8; also called apo-GkOYE.8; source: E. coli BL21(DE3), purified (Strep-Tactin column; HisTrap HP column for crystallization)
- Km [1, 4]: 4.28 mM
- kcat [1, 4]: 0.000178 s⁻¹
- kcat/Km [1, 4]: 0.0417 M⁻¹ s⁻¹
- Km ([2]; GkOYE.8, MBH reaction, no FMN): 15.98 mM
- kcat ([2]; GkOYE.8, MBH reaction, no FMN): 0.000458 s⁻¹
- kcat/Km ([2]; GkOYE.8, MBH reaction, no FMN): 0.0278 M⁻¹ s⁻¹
- stoichiometry N [3]: 2

B2: GkOYE (Geobacillus kaustophilus HTA426; G62W/Q102A/R215A/R308A/Y169F) (protein)
chain: MNTMLFSPYTIRGLTLKNRIVMSPMCMYSCDTKDGAVRTWHKIHYPARAVGQVGLIIVEATWVTPQGRISERDLGIWSDDHIAGLRELVGLVKEHGAAIGIALAHAGRKSQVPGEIIAPSAVPFDDSSPTPKEMTKADIEETVQAFQNGARRAKEAGFDVIEIHAAHGFLINEFLSPLSNRRQDEYGGSPENRYRFLGEVIDAVREVWDGPLFVAISASDYHPDGLTAKDYVPYAKRMKEQGVDLVDVSSGAIVPARMNVYPGYQVPFAELIRREADIPTGAVGLITSGWQAEEILQNGRADLVFLGAELLRNPYWPYAAARELGAKISAPVQYERGWRF
notes: recombinant, Strep-tagged, pET28a, E. coli BL21(DE3); Strep-Tactin purified; dimer in crystal
- Km ([1]; GkOYE.9, MBH reaction): 2.00 mM
- kcat ([1]; GkOYE.9, MBH reaction): 0.000181 s⁻¹
- kcat/Km ([1]; GkOYE.9, MBH reaction): 0.0917 M⁻¹ s⁻¹
- Km ([2]; GkOYE.9, MBH reaction): 12.44 mM
- kcat ([2]; GkOYE.9, MBH reaction): 0.000442 s⁻¹
- kcat/Km ([2]; GkOYE.9, MBH reaction): 0.0361 M⁻¹ s⁻¹

B3: GkOYE (Geobacillus kaustophilus HTA426; Q102A/R215A/R308A/Y169W) (protein)
chain: MNTMLFSPYTIRGLTLKNRIVMSPMCMYSCDTKDGAVRTWHKIHYPARAVGQVGLIIVEATGVTPQGRISERDLGIWSDDHIAGLRELVGLVKEHGAAIGIALAHAGRKSQVPGEIIAPSAVPFDDSSPTPKEMTKADIEETVQAFQNGARRAKEAGFDVIEIHAAHGWLINEFLSPLSNRRQDEYGGSPENRYRFLGEVIDAVREVWDGPLFVAISASDYHPDGLTAKDYVPYAKRMKEQGVDLVDVSSGAIVPARMNVYPGYQVPFAELIRREADIPTGAVGLITSGWQAEEILQNGRADLVFLGAELLRNPYWPYAAARELGAKISAPVQYERGWRF
notes: as for B2
- Km ([1]; GkOYE.12, MBH reaction): 4.50 mM
- kcat ([1]; GkOYE.12, MBH reaction): 0.000167 s⁻¹
- kcat/Km ([1]; GkOYE.12, MBH reaction): 0.0361 M⁻¹ s⁻¹
- Km ([2]; GkOYE.12, MBH reaction): 17.28 mM
- kcat ([2]; GkOYE.12, MBH reaction): 0.000422 s⁻¹
- kcat/Km ([2]; GkOYE.12, MBH reaction): 0.025 M⁻¹ s⁻¹

B4: GkOYE (Geobacillus kaustophilus HTA426; D247I/G62W/H167A/Q102A/R215A/R308A/Y169F) (protein)
chain: MNTMLFSPYTIRGLTLKNRIVMSPMCMYSCDTKDGAVRTWHKIHYPARAVGQVGLIIVEATWVTPQGRISERDLGIWSDDHIAGLRELVGLVKEHGAAIGIALAHAGRKSQVPGEIIAPSAVPFDDSSPTPKEMTKADIEETVQAFQNGARRAKEAGFDVIEIHAAAGFLINEFLSPLSNRRQDEYGGSPENRYRFLGEVIDAVREVWDGPLFVAISASDYHPDGLTAKDYVPYAKRMKEQGVDLVIVSSGAIVPARMNVYPGYQVPFAELIRREADIPTGAVGLITSGWQAEEILQNGRADLVFLGAELLRNPYWPYAAARELGAKISAPVQYERGWRF
notes: as for B2
- Km ([1]; GkOYE.11, MBH reaction): 1.70 mM
- kcat ([1]; GkOYE.11, MBH reaction): 0.00019 s⁻¹
- kcat/Km ([1]; GkOYE.11, MBH reaction): 0.114 M⁻¹ s⁻¹
- Km ([2]; GkOYE.11, MBH reaction): 11.22 mM
- kcat ([2]; GkOYE.11, MBH reaction): 0.000478 s⁻¹
- kcat/Km ([2]; GkOYE.11, MBH reaction): 0.0417 M⁻¹ s⁻¹

B5: GkOYE (Geobacillus kaustophilus HTA426; G62N/Q102A/R215A/R308A/Y169W) (protein)
chain: MNTMLFSPYTIRGLTLKNRIVMSPMCMYSCDTKDGAVRTWHKIHYPARAVGQVGLIIVEATNVTPQGRISERDLGIWSDDHIAGLRELVGLVKEHGAAIGIALAHAGRKSQVPGEIIAPSAVPFDDSSPTPKEMTKADIEETVQAFQNGARRAKEAGFDVIEIHAAHGWLINEFLSPLSNRRQDEYGGSPENRYRFLGEVIDAVREVWDGPLFVAISASDYHPDGLTAKDYVPYAKRMKEQGVDLVDVSSGAIVPARMNVYPGYQVPFAELIRREADIPTGAVGLITSGWQAEEILQNGRADLVFLGAELLRNPYWPYAAARELGAKISAPVQYERGWRF
notes: as for B2
- Km ([1]; GkOYE.13, MBH reaction): 1.91 mM
- kcat ([1]; GkOYE.13, MBH reaction): 0.000189 s⁻¹
- kcat/Km ([1]; GkOYE.13, MBH reaction): 0.1 M⁻¹ s⁻¹
- Km ([2]; GkOYE.13, MBH reaction): 12.10 mM
- kcat ([2]; GkOYE.13, MBH reaction): 0.000461 s⁻¹
- kcat/Km ([2]; GkOYE.13, MBH reaction): 0.0389 M⁻¹ s⁻¹
